Reference: US20150258192A1, “COMPOSITIONS AND METHODS FOR PREVENTING OR TREATING CHRONIC LUNG ALLOGRAFT DYSFUNCTION (CLAD) AND IDIOPATHIC PULMONARY FIBROSIS (IPF)” (priority 2014, published 2015)
No end group written: not given here.

Tests used:
Assay in all cases: Kinase Profiling Assay
Type in all cases: biochemical
Details in all cases: peptide 100 μM
CDK7/cyclinH/MAT1(h) = CDK7/cyclinH/MAT1(h) (Homo sapiens, UniProt P50613)
Description: (§1) Every kinase activity measurement was conducted in duplicate.
(§2) Specifically, in these assays, a positively charged substrate is phosphorylated with a radiolabeled phosphate group from an ATP if the kinase is not inhibited by an inhibitor peptide. The positively charged substrate then is attracted to a negatively charged filter membrane, quantified with a scintillation counter, and compared to a 100% activity control.
(§3) In addition to determining the IC50 of the compound, the specificity of MK2 inhibitory peptides was assessed by examining activities of all 266 human kinases available for testing in the Millipore kinase profiling service (Table 1).

Ros(h) = Ros(h) (Homo sapiens, UniProt P08922)
Description: as §1, §2, §3

CHK1(h) = target: T1, CHK1(h) (Homo sapiens, UniProt O14757)
T1 sequence (O14757 1-476): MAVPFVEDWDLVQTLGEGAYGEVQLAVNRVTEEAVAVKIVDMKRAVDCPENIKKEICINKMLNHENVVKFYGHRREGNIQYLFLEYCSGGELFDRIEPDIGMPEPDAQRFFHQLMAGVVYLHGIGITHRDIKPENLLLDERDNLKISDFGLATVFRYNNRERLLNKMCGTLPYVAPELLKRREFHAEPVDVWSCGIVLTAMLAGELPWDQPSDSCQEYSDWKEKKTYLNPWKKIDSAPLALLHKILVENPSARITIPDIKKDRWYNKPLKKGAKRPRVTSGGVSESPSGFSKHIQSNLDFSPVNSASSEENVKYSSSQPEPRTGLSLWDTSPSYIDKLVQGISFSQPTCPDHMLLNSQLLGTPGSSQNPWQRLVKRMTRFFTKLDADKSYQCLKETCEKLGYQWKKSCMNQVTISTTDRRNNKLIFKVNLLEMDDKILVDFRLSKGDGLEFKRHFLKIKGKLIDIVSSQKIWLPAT
Description: as §1, §2, §3

SGK3(h) = target: T2, SGK3(h) (Homo sapiens, UniProt Q96BR1)
T2 construct: purchased Millipore
T2 sequence (Q96BR1 1-496): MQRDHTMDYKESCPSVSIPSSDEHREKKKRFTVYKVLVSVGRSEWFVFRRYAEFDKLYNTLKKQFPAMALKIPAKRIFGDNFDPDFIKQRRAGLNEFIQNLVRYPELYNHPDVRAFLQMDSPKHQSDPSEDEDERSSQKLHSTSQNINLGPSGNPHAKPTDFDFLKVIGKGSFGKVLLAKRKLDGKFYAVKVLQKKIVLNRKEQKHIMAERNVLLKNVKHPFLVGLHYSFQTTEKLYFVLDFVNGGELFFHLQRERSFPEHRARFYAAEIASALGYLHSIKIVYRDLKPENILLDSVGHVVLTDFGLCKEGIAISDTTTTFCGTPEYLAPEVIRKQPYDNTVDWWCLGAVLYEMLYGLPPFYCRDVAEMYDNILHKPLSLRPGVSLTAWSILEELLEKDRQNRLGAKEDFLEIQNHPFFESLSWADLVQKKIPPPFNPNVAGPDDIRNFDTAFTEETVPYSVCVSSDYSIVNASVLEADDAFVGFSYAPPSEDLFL
Description: as §1, §2, §3

PAK2(h) = target: T3, PAK2(h) (Homo sapiens, UniProt Q13177)
T3 construct: purchased Millipore
Description: as §1, §2, §3

ASK1(h) = target: T4, ASK1(h) (Homo sapiens, UniProt Q99683)
T4 sequence (Q99683 1-1374): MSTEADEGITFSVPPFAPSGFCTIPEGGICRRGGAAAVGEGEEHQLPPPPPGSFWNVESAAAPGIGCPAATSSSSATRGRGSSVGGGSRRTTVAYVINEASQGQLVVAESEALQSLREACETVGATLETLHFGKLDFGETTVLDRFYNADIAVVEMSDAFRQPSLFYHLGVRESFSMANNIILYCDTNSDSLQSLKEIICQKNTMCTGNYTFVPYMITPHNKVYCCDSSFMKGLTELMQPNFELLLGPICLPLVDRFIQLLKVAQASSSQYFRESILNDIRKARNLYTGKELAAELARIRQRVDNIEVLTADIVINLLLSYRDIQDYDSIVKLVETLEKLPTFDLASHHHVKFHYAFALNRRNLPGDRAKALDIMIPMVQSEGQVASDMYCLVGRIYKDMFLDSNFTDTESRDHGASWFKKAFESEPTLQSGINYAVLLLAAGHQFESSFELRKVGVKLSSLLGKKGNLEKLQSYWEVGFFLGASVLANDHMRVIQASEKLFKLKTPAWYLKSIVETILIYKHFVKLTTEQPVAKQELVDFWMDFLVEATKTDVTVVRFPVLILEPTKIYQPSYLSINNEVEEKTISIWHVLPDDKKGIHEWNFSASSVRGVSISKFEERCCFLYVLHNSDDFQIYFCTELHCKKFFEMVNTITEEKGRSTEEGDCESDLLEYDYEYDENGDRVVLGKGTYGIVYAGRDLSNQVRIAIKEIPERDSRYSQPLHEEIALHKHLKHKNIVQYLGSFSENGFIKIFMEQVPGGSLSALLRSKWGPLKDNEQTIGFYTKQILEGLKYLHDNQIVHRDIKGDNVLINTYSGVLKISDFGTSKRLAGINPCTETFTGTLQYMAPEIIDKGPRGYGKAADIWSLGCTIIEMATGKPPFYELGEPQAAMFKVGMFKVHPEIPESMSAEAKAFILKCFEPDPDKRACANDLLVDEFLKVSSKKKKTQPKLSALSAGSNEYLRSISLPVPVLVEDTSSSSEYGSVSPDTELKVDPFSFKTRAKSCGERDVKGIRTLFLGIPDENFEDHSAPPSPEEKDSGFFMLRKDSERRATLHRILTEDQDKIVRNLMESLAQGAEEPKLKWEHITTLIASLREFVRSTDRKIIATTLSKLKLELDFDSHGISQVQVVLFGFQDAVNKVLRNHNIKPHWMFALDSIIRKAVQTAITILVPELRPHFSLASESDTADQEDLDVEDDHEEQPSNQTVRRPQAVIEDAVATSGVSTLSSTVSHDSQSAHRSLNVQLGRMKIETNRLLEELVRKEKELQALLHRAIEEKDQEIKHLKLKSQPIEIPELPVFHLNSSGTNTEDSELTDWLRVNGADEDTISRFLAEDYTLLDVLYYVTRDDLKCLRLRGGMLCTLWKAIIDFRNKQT
Description: as §1, §2, §3

mTOR(h) = target: T5, mTOR(h) (Homo sapiens, UniProt P42345)
T5 construct: purchased Millipore
Description: as §1, §2, §3

Fes(h) = Fes(h) (Homo sapiens, UniProt P07332)
Description: as §1, §2, §3

PDGFRα(h) = PDGFRα(h) (Homo sapiens, UniProt P16234)
Description: as §1, §2, §3

Chain of Fes(h) (P07332 whole entry): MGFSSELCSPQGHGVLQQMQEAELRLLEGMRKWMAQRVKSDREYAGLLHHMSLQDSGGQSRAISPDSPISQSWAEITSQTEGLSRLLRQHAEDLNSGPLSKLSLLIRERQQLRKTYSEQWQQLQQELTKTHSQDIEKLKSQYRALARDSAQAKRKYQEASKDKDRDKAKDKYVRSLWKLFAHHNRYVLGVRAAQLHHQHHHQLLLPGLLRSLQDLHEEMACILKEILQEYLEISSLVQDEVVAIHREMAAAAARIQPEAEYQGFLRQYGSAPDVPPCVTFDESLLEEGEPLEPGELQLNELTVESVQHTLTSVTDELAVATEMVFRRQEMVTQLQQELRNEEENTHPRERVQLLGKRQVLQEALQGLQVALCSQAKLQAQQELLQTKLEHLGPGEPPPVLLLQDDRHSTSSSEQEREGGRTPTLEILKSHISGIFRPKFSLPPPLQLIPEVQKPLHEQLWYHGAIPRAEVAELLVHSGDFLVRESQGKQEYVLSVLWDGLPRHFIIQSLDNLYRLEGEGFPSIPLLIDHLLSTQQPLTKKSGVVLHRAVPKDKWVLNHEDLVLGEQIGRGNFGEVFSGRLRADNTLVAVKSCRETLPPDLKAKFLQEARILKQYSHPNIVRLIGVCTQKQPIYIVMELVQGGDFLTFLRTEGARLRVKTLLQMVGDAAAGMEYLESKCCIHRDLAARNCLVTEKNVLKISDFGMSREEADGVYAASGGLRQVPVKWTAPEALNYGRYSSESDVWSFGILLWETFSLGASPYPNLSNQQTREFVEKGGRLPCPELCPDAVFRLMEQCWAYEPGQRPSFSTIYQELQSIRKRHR
Chain of PDGFRα(h) (P16234 24-1089): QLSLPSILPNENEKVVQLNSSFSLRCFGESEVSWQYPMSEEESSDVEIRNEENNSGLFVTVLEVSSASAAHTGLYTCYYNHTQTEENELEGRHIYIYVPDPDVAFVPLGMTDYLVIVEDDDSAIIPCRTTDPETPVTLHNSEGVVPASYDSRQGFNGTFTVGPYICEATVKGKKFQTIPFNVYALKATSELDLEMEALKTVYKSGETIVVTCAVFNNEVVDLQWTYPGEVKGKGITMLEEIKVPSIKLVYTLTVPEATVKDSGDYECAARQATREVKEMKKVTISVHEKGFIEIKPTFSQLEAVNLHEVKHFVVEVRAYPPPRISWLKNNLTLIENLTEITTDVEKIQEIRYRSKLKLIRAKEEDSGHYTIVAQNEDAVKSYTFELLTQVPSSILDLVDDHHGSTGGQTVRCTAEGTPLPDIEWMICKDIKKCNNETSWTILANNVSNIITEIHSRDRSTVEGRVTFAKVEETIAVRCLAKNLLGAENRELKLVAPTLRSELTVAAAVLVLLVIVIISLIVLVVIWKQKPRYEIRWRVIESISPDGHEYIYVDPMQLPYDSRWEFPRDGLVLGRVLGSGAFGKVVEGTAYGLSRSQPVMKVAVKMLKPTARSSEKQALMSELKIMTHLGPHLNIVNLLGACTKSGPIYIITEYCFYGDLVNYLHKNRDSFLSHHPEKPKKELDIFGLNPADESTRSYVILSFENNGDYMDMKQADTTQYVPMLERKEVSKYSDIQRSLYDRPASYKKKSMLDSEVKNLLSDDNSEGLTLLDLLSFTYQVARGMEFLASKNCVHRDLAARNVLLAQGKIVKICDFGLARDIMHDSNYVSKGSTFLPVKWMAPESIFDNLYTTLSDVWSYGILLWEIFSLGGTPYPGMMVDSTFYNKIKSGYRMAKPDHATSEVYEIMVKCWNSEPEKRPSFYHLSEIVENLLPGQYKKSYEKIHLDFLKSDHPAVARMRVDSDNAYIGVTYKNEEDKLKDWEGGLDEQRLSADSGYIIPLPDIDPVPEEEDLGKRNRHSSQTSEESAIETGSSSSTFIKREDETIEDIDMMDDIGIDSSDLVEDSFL
Chain of CDK7/cyclinH/MAT1(h) (P50613 whole entry): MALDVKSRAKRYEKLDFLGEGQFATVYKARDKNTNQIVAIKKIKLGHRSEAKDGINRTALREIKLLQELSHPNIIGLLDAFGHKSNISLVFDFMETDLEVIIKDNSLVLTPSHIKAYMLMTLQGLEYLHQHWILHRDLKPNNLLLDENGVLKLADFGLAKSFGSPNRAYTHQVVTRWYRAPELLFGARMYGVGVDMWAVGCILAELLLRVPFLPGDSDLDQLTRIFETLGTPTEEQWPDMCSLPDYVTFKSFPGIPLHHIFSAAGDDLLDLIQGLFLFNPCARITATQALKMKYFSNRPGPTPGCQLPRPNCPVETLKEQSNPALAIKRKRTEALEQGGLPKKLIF
Chain of CDK7/cyclinH/MAT1(h) (P51946 whole entry partner): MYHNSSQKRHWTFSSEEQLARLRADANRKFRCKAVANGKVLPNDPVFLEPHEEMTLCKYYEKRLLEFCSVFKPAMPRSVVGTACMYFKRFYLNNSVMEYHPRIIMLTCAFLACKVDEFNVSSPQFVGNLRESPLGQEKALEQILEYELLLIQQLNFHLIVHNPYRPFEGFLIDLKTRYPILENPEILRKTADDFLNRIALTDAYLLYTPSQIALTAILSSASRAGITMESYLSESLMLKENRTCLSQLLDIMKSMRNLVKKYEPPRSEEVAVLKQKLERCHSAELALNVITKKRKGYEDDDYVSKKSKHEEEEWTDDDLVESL
Chain of CDK7/cyclinH/MAT1(h) (P51948 whole entry partner): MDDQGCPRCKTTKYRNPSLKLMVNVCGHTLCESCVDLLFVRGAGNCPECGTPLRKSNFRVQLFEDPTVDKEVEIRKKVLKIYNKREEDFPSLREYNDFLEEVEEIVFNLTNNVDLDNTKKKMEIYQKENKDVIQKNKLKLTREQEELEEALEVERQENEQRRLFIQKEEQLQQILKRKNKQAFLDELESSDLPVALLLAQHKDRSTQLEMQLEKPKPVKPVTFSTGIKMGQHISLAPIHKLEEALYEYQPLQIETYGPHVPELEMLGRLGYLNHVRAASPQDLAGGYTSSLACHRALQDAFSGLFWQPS
T3 sequence (Q13177 whole entry): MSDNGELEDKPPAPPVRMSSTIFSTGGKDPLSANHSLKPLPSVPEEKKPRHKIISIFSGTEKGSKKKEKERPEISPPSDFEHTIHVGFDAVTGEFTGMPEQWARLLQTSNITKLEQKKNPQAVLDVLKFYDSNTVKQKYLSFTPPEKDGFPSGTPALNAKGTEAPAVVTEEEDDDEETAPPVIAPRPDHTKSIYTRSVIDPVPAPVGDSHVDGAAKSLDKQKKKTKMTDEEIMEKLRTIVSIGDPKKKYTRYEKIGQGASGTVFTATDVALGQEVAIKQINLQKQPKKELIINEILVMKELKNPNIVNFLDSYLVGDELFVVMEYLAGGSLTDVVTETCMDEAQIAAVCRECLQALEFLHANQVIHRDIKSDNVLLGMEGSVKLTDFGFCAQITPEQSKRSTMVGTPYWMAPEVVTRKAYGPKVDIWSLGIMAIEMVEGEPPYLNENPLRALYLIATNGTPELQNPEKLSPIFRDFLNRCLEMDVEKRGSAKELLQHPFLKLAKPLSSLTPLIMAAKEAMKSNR

Sequence | % activity (CDK7/cyclinH/MAT1(h)) | % activity (Ros(h)) | % activity (CHK1(h)) | % activity (SGK3(h)) | % activity (PAK2(h)) | % activity (ASK1(h)) | % activity (mTOR(h)) | % activity (Fes(h)) | % activity (PDGFRα(h))
FAKLAARLYRKALARQLGVAA [MMI-0300] | 65% | 95% | 91% | 10% | 65% | 80% | 91% | 20% | 65%
HRRIKAWLKKIKALARQLGVAA (Mammal) [MMI-0500] | 15% | 150% | 65% | -3% | 44% | -4% | 135% | 23% | 40%
KAFAKLAARLYRKALARQLGVAA [MMI-0400] | 47% | 99% | 87% | 8% | 59% | 69% | 93% | 16% | 40%
YARAAARQARAKALARQLGVAA [MMI-0100] | – | – | – | 95% | 71% | – | – | – | –
YARAAARQARAKALNRQLGVA (Mammal) [MMI-0200] | 67% | 86% | – | 58% | 69% | 101% | 110% | 74% | 108%
